For experiment [1], the target named is T1, tubulin covalently linked to a biotinylated stathmin-like peptide. The experiment can be described thus: ELISA. The settings on record: chain shown with the change, buffer incubation after binding, read off a plot. (In general: ELISA stands for enzyme-linked immunosorbent assay.)
Experiment [2] concerns the target T1, tubulin covalently linked to a …. The experiment can be described thus: ELISA (off-rate estimation). The settings on record: chain shown with the change, incubation with 100 nM soluble tubulin to prevent rebinding, read off a plot.
The mark [3] stands for this setting: 2 nM biotinylated peptide-coupled tubulin for coating, parent: est. 0.082.
Setting [4] is: 10 nM biotinylated peptide-coupled tubulin for coating, parent: est. 0.32.
[5] abbreviates: 2 nM biotinylated peptide-coupled tubulin for coating, parent: est. 0.046.
Where [6] appears, read: 10 nM biotinylated peptide-coupled tubulin for coating, parent: est. 0.11.

Where a chain is given by its changes, count along the chain named. Numbers in names are those of the source.

B1: DARPin D1 H118R (protein)
chain: MRGSHHHHHHGSDLGKKLLEAARAGQDDEVRILMANGADVNATDASGLTPLHLAATYGHLEIVEVLLKHGADVNAIDIMGSTPLHLAALIGHLEIVEVLLKHGADVNAVDTWGDTPLRLAAIMGHLEIVEVLLKHGADVNAQDKFGKTAFDISIDNGNEDLAEILQKLN
With B1, the response was 0.71 AU in experiment [1] (setting [3]), 0.76 AU in experiment [1] (setting [4]), 0.45 AU in experiment [2] (setting [5]) and 0.76 AU in experiment [2] (setting [6]).

B2: DARPin D1 I32V (protein)
chain: B1 chain with I32V, R118H
Turning to B2, the response is 0.31 AU in experiment [1] (setting [4]) and 0.11 AU in experiment [2] (setting [6]).

B3: DARPin D1 I76S (protein)
chain: B1 chain with I76S, R118H
As to B3, the response was 0.3 AU in experiment [1] (setting [4]) and 0.15 AU in experiment [2] (setting [6]).

B4: DARPin D1 N74S (protein)
chain: B1 chain with N74S, R118H
B4: the values for the response in experiment [1] (setting [4]) and in experiment [2] (setting [6]) were 0.28 AU and 0.18 AU, respectively.

B5: DARPin D1 I152T; N158S (protein)
chain: B1 chain with R118H, I152T, N158S
Regarding B5, the response in experiment [1] (setting [3]) was 0.61 AU; in experiment [2] (setting [5]), 0.27 AU.

B6: DARPin D1 I32V; N74S; I76S; I78L; H118R; I122V; E127K; V131A; F150Y; I152T; N158S (protein)
chain: B1 chain with I32V, N74S, I76S, I78L, I122V, E127K, V131A, F150Y, I152T, N158S
As for B6, the response in experiment [1] (setting [3]) is 0.72 AU; in experiment [1] (setting [4]) it was 0.74 AU; in experiment [2] (setting [5]), 0.38 AU; in experiment [2] (setting [6]), 0.74 AU.

B7: DARPin D1 E127K (protein)
chain: B1 chain with R118H, E127K
As for B7, the response was 0.42 AU in experiment [1] (setting [4]) and 0.11 AU in experiment [2] (setting [6]).

B8: DARPin D1 I78L (protein)
chain: B1 chain with I78L, R118H
B8: the response was 0.4 AU in experiment [1] (setting [4]) and 0.13 AU in experiment [2] (setting [6]).

B9: DARPin D1 I152T (protein)
chain: B1 chain with R118H, I152T
In the case of B9, the response was 0.48 AU in experiment [1] (setting [3]), 0.79 AU in experiment [1] (setting [4]), 0.075 AU in experiment [2] (setting [5]) and 0.44 AU in experiment [2] (setting [6]).

B10: DARPin D1 N74S; I76S; I78L (protein)
chain: B1 chain with N74S, I76S, I78L, R118H
With B10, the response in experiment [1] (setting [4]) was 0.34 AU; in experiment [2] (setting [6]) it was 0.18 AU.

B11: DARPin D1 H118R; I122V (protein)
chain: B1 chain with I122V
Turning to B11, the response was 0.73 AU in experiment [1] (setting [4]) and 0.69 AU in experiment [2] (setting [6]).

B12: DARPin D1 F150Y; I152T; N158S (protein)
chain: B1 chain with R118H, F150Y, I152T, N158S
Consider B12, for which the response in experiment [1] (setting [4]) was 0.75 AU; in experiment [2] (setting [6]), 0.69 AU.

B13: DARPin D1 H118R; I152T; N158S (protein)
chain: B1 chain with I152T, N158S
For B13, the values for the response in experiment [1] (setting [3]) and in experiment [2] (setting [5]) were 0.75 AU and 0.57 AU, respectively.

B14: DARPin D1 V131A (protein)
chain: B1 chain with R118H, V131A
Turning to B14, the response in experiment [1] (setting [4]) is 0.24 AU; in experiment [2] (setting [6]) it was 0.1 AU.

B15: DARPin D1 E127K; V131A (protein)
chain: B1 chain with R118H, E127K, V131A
Take B15: the values for the response in experiment [1] (setting [4]) and in experiment [2] (setting [6]) were 0.31 AU and 0.075 AU, respectively.

B16: DARPin D1 I122V (protein)
chain: B1 chain with R118H, I122V
On to B16, for which the response in experiment [1] (setting [4]) was 0.22 AU; in experiment [2] (setting [6]) it was 0.12 AU.

B17: DARPin D1 F150Y (protein)
chain: B1 chain with R118H, F150Y
On to B17, for which the response in experiment [1] (setting [4]) was 0.26 AU; in experiment [2] (setting [6]), 0.13 AU.

B18: DARPin D1 N158S (protein)
chain: B1 chain with R118H, N158S
On to B18, for which the response is 0.15 AU in experiment [1] (setting [3]), 0.59 AU in experiment [1] (setting [4]), 0.045 AU in experiment [2] (setting [5]) and 0.14 AU in experiment [2] (setting [6]).
